Laboratory results from patent US6716811B1, “Compounds having affinity for the granulocyte-colony stimulating factor receptor (G-CSFR) and associated uses” (Affymax, Inc., priority 2000, dated 2004).
Where a SMILES comes first, the peptide text is derived from it. Bridges are numbered along the chain shown (N, C = ends). Roman numbers before positions name the chains, in order.

Key:
G-CSFR [1] = molecular target: T1, G-CSFR (Homo sapiens, UniProt Q99062); assay: G-CSF radioligand binding assay (SPA beads, 125I labeled G-CSF); conditions: reduction by 50% of 125I labeled G-CSF bound to immobilized G-CSFR; overnight at 4° C.
T1 construct: incubation with soluble G-CSFR harvest; made in house
T1 sequence (Q99062 25-627): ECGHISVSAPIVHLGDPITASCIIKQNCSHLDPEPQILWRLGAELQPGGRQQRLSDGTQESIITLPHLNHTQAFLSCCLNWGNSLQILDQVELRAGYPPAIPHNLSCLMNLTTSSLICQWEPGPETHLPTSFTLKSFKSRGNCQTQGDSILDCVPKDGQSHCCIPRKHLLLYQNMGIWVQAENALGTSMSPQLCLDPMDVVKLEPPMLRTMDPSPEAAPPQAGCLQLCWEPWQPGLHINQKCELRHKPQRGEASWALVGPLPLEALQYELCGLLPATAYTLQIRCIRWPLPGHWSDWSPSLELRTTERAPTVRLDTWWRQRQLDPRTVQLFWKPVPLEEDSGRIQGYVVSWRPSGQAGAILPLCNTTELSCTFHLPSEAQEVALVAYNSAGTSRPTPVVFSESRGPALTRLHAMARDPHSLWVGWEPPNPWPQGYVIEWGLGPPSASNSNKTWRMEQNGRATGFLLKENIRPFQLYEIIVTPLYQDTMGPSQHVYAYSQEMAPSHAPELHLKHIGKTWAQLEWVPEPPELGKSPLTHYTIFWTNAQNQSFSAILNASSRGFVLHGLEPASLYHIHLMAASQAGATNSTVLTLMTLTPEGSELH
Protocol: Streptavidin-coated scintillation proximity assay (SPA) beads (Amersham) were mixed with biotinylated anti-receptor immobilizing antibody (Ab179) followed by incubation with soluble G-CSFR harvest. Receptor-coated SPA beads were washed twice in PBS/0.1% BSA and distributed to wells of a white polystyrene 96-well microtiter plate (Packard). Serial dilutions of peptide or peptide mimetic were mixed with a constant amount of ^125I labeled G-CSF (10^5 cpm; 1290 Ci/mmol) in PBS/0.1% BSA, added to wells containing receptor-coated SPA beads, and incubated overnight at 4° C. The binding of radiolabeled G-CSF to the receptor-coated SPA bead brings the isotope in close proximity to the scintillant, which allows the emitted radiation to stimulate the scintillant to emit light. […] The amount of ^125I labeled G-CSF that was bound at equilibrium was measured by counting the plate in a TopCount (Wallac) microtiter plate luminometer. […] One can determine the concentration at which the peptide or peptide mimetic will reduce by 50% (IC50) the amount of ^125I labeled G-CSF bound to immobilized G-CSFR.

G-CSFR [2] = molecular target: T1, G-CSFR; assay: Specific binding of peptides to G-CSFR; conditions: total minus non-specific binding; unlabeled ligand typically G-CSF variant CS17
Description: Specific binding is binding of a ligand to a specific receptor, as opposed to non-specific binding that is mediated by non-specific interactions. Specific binding may be measured by subtraction of the non-specific binding (measured in the presence of saturating concentrations of unlabeled ligand) from the total binding (measured in the absence of saturating amounts of ligand). Typically, the unlabeled ligand used was a variant of G-CSF in which the cysteine normally found at position 17 was converted to serine (CS17).

G-CSFR [3] = molecular target: T2, G-CSFR (Homo sapiens, UniProt Q99062); assay: G-CSF competition binding assay (125I labeled G-CSF, immobilized G-CSFR in microtiter wells); design: made in house; conditions: reduction of bound 125I labeled G-CSF; overnight at 4° C.
T2 sequence (Q99062 25-836): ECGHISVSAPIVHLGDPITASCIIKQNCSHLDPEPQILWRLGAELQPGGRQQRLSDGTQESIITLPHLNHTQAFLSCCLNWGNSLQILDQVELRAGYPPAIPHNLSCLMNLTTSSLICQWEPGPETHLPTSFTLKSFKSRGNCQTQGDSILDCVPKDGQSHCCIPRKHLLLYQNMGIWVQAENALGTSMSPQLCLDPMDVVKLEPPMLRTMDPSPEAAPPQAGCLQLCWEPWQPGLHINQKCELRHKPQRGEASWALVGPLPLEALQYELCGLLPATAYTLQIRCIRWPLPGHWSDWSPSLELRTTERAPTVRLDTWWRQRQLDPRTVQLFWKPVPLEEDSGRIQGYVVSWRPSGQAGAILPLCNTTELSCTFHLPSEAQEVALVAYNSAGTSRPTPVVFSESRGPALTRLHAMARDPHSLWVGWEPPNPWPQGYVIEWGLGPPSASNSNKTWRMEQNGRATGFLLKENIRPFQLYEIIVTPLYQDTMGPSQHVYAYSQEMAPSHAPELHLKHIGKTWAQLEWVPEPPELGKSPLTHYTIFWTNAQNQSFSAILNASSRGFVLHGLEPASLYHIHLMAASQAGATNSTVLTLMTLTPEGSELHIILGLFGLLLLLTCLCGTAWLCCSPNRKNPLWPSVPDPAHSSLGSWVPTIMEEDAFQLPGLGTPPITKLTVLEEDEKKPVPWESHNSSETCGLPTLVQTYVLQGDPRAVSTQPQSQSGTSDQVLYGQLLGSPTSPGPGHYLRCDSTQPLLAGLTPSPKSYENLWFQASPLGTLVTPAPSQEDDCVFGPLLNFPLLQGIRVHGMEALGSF
Protocol: Determination of competitive binding was also carried out for a number of peptides. Briefly stated, G-CSFR was purified using standard techniques. The receptor was then immobilized in microtiter plate wells that were coated with acid-treated antibody (A b179) specific for a site on G-CSFR not involved with G-CSF binding. Separately, ^125I was coupled to the natural ligand G-CSF using techniques well known in the art. Test peptides were added to receptor-coated wells and allowed to bind to immobilized receptor for approximately 30 minutes. ^125 labeled G-CSF was then introduced to the wells and incubated overnight at 4°C. Unbound ^125I labeled G-CSF was removed by washing the plate several times followed by measuring the amount of radioactivity that remained in each well using conventional techniques. […] Alternatively, if reduced amounts or no ^125I labeled G-CSF was detected, the peptide did compete.

Compound | IC50 (G-CSFR [1]) [µM] | Specific Binding? (G-CSFR [2]) | Competitive Binding? (G-CSFR [3])
CC(C)C[C@H](NC(=O)[C@H](CCCNC(=N)N)NC(=O)[C@H](CCC(=O)O)NC(=O)[C@H](C)NC(=O)[C@@H](NC(=O)[C@@H](N)CO)[C@@H](C)O)C(=O)N[C@@H](Cc1c[nH]c2ccccc12)C(=O)N[C@@H](Cc1ccccc1)C(=O)N[C@@H](CSSC[C@H](NC(=O)[C@H](Cc1ccccc1)NC(=O)[C@H](Cc1c[nH]c2ccccc12)NC(=O)[C@H](CC(C)C)NC(=O)[C@H](CCCNC(=N)N)NC(=O)[C@H](CCC(=O)O)NC(=O)[C@H](C)NC(=O)[C@@H](NC(=O)[C@@H](N)CO)[C@@H](C)O)C(=O)NCC(N)=O)C(=O)NCC(N)=O [Example 37] (I: H-STAERLWFCG-NH2 / II: H-STAERLWFCG-NH2; disulfide I:9-II:9) | 0.5 to 200 | – | –
N=C(N)NCCC[C@H](NC(=O)[C@H](CCC(=O)O)NC(=O)[C@H](CO)NC(=O)[C@H](CC(N)=O)NC(=O)[C@H](CO)NC(=O)[C@@H](N)CCC(N)=O)C(=O)N[C@@H](CCC(=O)O)C(=O)N[C@@H](Cc1c[nH]c2ccccc12)C(=O)N[C@@H](Cc1ccccc1)C(=O)N[C@@H](CSSC[C@H](NC(=O)[C@H](Cc1ccccc1)NC(=O)[C@H](Cc1c[nH]c2ccccc12)NC(=O)[C@H](CCC(=O)O)NC(=O)[C@H](CCCNC(=N)N)NC(=O)[C@H](CCC(=O)O)NC(=O)[C@H](CO)NC(=O)[C@H](CC(N)=O)NC(=O)[C@H](CO)NC(=O)[C@@H](N)CCC(N)=O)C(N)=O)C(N)=O [Example 39] (I: H-QSNSEREWFC-NH2 / II: H-QSNSEREWFC-NH2; disulfide I:10-II:10) | > 200 | – | –
N=C(N)NCCC[C@H](NC(=O)[C@H](CCC(=O)O)NC(=O)[C@H](CO)NC(=O)[C@H](CC(N)=O)NC(=O)[C@H](CO)NC(=O)[C@@H](N)CCC(N)=O)C(=O)N[C@@H](CCC(=O)O)C(=O)N[C@@H](Cc1c[nH]c2ccccc12)C(=O)N[C@@H](Cc1ccccc1)C(=O)N[C@@H](CSSC[C@H](NC(=O)[C@H](Cc1ccccc1)NC(=O)[C@H](Cc1c[nH]c2ccccc12)NC(=O)[C@H](CCC(=O)O)NC(=O)[C@H](CCCNC(=N)N)NC(=O)[C@H](CCC(=O)O)NC(=O)[C@H](CO)NC(=O)[C@H](CC(N)=O)NC(=O)[C@H](CO)NC(=O)[C@@H](N)CCC(N)=O)C(=O)NCC(N)=O)C(=O)NCC(N)=O [Example 41] (I: H-QSNSEREWFCG-NH2 / II: H-QSNSEREWFCG-NH2; disulfide I:10-II:10) | > 200 | – | –
CC(C)[C@H](NC(=O)[C@H](Cc1c[nH]c2ccccc12)NC(=O)[C@@H](NC(=O)[C@H](Cc1c[nH]c2ccccc12)NC(=O)CNC(=O)[C@H](CO)NC(=O)[C@H](CC(N)=O)NC(=O)[C@H](CO)NC(=O)[C@H](CCC(N)=O)NC(=O)[C@@H](N)CCC(=O)O)C(C)C)C(=O)NCC(=O)NCC(=O)NCC(=O)NCC(=O)N[C@@H](CSSC[C@H](NC(=O)CNC(=O)CNC(=O)CNC(=O)CNC(=O)[C@@H](NC(=O)[C@H](Cc1c[nH]c2ccccc12)NC(=O)[C@@H](NC(=O)[C@H](Cc1c[nH]c2ccccc12)NC(=O)CNC(=O)[C@H](CO)NC(=O)[C@H](CC(N)=O)NC(=O)[C@H](CO)NC(=O)[C@H](CCC(N)=O)NC(=O)[C@@H](N)CCC(=O)O)C(C)C)C(C)C)C(N)=O)C(N)=O [Example 46] (I: H-EQSNSGWVWVGGGGC-NH2 / II: H-EQSNSGWVWVGGGGC-NH2; disulfide I:15-II:15) | 0.5 to 200 | – | –
Ac-ESGWVW-NH2 [Example 42, Ac-ESGWVW-CONH2] | > 200 | – | –
Ac-NSGWVW-NH2 [Example 43, Ac-NSGWVW-CONH2] | > 200 | – | –
CACMLRVVHC [Example 14] | – | Yes | Yes
CADEVMHFCC [Example 3] | – | Yes | Yes
CAGEVMHMCC [Example 1] | – | Yes | Yes
CDPWMFYDLC [Example 7] | – | Yes | No
CDVWQLFDRC [Example 4] | – | Yes | Yes
CETLCGACFC [Example 15] | – | No | No
CFWSDWGQTC [Example 11] | – | No | No
CHANPVWGEC [Example 9] | – | No | No
CNREIEAMCC [Example 2] | – | Yes | Yes
CPDWYQSYMC [Example 12] | – | Yes | Yes
CPHWTSYYMC [Example 13] | – | Yes | Yes
CQRAGYMLAC [Example 8] | – | No | No
CSFVQLNSIC [Example 5] | – | Yes | Yes
CVPWMFYDLC [Example 6] | – | Yes | No
H-EQSNSGWVWV-NH2 [Example 35, NH2-EQSNSGWVWV-CONH2] | 0.5 to 200 | – | –
H-EQSNSGWVWVGGGGC-NH2 [Example 45, NH2-EQSNSGWVWVGGGGC-CONH2] | 0.5 to 200 | – | –
H-KSTGGLTAERDAEKRRWLLTHGGE-OH [Example 66] | > 200 | – | –
H-QSNSEREWFC-NH2 [Example 38, NH2-QSNSEREWFC-CONH2] | > 200 | – | –
H-QSNSEREWFCG-NH2 [Example 40, NH2-QSNSEREWFCG-CONH2] | > 200 | – | –
H-STAERLWFCG-NH2 [Example 36, NH2-STAERLWFCG-CONH2] | > 200 | – | –
